Experimental data published in patent publication US20140179896A1 (published 2014).

Experiments:
[1] = molecular target: T1, human vascular endothelial growth factor receptor-2 Fc chimera (KDR-Fc) (human, UniProt P35968 20-764); test: radioactive equilibrium binding assay, 1 nM KDR-Fc, % of input bound
T1 construct: range 1-764; also called human VEGFR-2; not shown: human IgG1 Fc
Description: (§1) To prepare ³⁵S-labeled binding proteins for analysis, mRNA was prepared as described above for RNA-protein fusion production but the linker ligation step was omitted. The mRNA was expressed using rabbit reticulocyte lysate translation kit (Ambion) in the presence of ³⁵S-labeled Met at 30° C. for 1 hour. Expressed protein was purified on M2-agarose Flag beads (Sigma) as described above. This procedure produced the encoded protein without the nucleic acid tail. In a direct binding assay, VEGF-R2-Fc fusions in concentrations ranging from 0 to 200 nM were added to a constant concentration of the purified protein (0.2 or 0.5 nM) and incubated at 30° C. for 1 hour in buffer B. The receptor-binder complexes were captured using Protein A magnetic beads for another 10 minutes at room temperature using a Kingfisher™ The beads were washed with six reaction volumes of buffer B. The protein was eluted from the beads with 100 μL of 0.1 M KOH. […] of the reaction mixture and elution were dried onto a LumaPlate-96 (Packard) and the amount of ³⁵S on the plate was measured using a TopCount NXT instrument (Packard). The amount of fibronectin-based scaffold protein bound to the target was estimated as a percent of radioactivity eluted from Protein A magnetic beads compare to radioactivity in the reaction mixture. Nonspecific binding of fibronectin-based scaffold proteins to the beads was determined by measuring binding in the absence of KDR-Fc and represented less than 1-2% of the input. Specific binding was obtained through subtraction of nonspecific binding from total binding. Data was analyzed using the GraphPad Prizm software (GraphPad Software, Inc, San Diego, Calif.), fitted using a one site, non-linear binding equation.

[2] = molecular target: T2, mouse vascular endothelial growth factor receptor-2 Fc chimera (Flk-1-Fc) (mouse, UniProt P35918 20-762); test: radioactive equilibrium binding assay, 1 nM Flk-1-Fc, % of input bound
T2 construct: Bought from R&D Systems; also called mouse VEGFR-2; not shown: Fc part of the purchased chimera, not specified
Description: as §1

T2 sequence (P35918 20-762, change not shown): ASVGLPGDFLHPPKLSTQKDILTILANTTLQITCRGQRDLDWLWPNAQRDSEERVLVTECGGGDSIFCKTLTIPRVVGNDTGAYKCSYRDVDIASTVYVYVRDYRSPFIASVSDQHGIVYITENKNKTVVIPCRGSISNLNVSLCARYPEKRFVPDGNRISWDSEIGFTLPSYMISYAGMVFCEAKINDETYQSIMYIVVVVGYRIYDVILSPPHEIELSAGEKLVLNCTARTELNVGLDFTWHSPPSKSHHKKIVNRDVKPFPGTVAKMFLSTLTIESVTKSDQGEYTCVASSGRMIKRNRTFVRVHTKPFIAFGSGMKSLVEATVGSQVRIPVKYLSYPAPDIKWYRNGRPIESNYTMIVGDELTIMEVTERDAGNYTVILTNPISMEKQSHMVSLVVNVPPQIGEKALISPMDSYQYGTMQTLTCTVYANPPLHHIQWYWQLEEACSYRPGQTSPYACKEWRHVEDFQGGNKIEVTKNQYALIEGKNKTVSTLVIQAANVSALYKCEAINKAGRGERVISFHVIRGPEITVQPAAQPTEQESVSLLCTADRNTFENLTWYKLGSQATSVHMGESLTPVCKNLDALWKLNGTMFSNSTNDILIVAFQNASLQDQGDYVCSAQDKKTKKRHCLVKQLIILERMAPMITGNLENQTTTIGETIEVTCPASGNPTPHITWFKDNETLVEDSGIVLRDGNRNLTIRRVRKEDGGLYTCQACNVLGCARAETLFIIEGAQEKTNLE
T1 sequence (P35968 20-764 limits assumed, change not shown, form in doubt): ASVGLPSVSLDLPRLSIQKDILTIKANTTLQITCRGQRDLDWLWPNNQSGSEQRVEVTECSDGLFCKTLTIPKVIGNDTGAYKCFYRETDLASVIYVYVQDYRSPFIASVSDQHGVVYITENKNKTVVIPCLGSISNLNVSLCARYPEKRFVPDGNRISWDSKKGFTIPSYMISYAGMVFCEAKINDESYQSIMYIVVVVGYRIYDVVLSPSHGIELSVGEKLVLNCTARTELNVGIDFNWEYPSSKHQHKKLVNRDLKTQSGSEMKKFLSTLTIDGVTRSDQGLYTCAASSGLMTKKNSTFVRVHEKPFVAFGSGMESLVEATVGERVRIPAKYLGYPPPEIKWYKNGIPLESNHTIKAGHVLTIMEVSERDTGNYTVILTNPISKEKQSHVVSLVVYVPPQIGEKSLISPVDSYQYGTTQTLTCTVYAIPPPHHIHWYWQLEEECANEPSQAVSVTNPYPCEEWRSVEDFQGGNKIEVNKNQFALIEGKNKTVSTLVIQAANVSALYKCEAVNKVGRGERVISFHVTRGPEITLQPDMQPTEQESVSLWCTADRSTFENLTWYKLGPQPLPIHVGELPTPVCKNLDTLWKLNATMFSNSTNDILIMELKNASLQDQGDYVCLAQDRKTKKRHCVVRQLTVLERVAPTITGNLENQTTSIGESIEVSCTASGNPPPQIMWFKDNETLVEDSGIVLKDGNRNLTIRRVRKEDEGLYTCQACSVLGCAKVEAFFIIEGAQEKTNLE

| Binder | Binding to 1 nM KDR, % [1] | Binding to 1 nM Flk-1, % [2] |
| --- | --- | --- |
| E13 (designed binder, 10Fn3 clone, Del 1-8) EVVAATPTSLLISWRHPHFPTRYYRITYGETGGNSPVQEFTVPLQPPTATISGLKPGVDYTITGYAVTLEQNGRELMTPISINYRT | 38% | 1% |
| E21 (designed binder, 10Fn3 clone, Del 1-8) EVVAATPTSLLISWRHPHFPTRYYRITYGETGGNSPVQEFTVPLQPPTATISGLKPGVDYTITGYAVTWGYKDHELLIPISINYRT | 47% | 1% |
| EGE1 (designed binder, 10Fn3 clone, Del 1-8) EVVAATPTSLLISWRHPHFPTRYYRITYGETGGNSPVQEFTVPLQPPTATISGLKPGVDYTITGYAVTLERNGRKLMTPISINYRT | 30% | 29% |
| EGE8 (designed binder, 10Fn3 clone, Del 1-8) EVVAATPTSLLISWRHPHFPTRYYRITYGETGGNSPVQEFTVPLQPPTATISGLKPGVDYTITGYAVTVERNERVLMTPISINYRT | 26% | 20% |
| F1 (designed binder, 10Fn3 clone, Del 1-8) EVVAATPTSLLISWRHPHFPTRYYRITYGETGGNSPVQEFTVPLQPPTATISGLKPGVDYTITGYAVTSGRNDRELLVPISINYRT | 18% | 2% |
| E27 (designed binder, 10Fn3 clone, Del 1-8) EVVAATPTSLLISWRHPHFPTRYYRITYGETGGNSPVQEFTVPLQPPTATISGLKPGVDYTITGYAVTVERNGHTLMTPISINYRT | 37% | 9% |
| EGE7 (designed binder, 10Fn3 clone, Del 1-8) EVVAATPTSLLISWRHPHFPTRYYRITYGETGGNSPVQEFTVPLQPPTATISGLKPGVDYTITGYAVTLERNDRVLLTPISINYRT | 31% | 30% |
| E14 (designed binder, 10Fn3 clone, Del 1-8) EVVAATPTSLLISWRHPHFPTRYYRITYGETGGNSPVQEFTVPLQPPTATISGLKPGVDYTITGYAVTLERNGQVLFTPISINYRT | 33% | 11% |
| E20 (designed binder, 10Fn3 clone, Del 1-8) EVVAATPTSLLISWRHPHFPTRYYRITYGETGGNSPVQEFTVPLQPPTATISGLKPGVDYTITGYAVTVERNGQVLYTPISINYRT | 43% | 11% |
| E16 (designed binder, 10Fn3 clone, Del 1-8) EVVAATPTSLLISWRHPHFPTRYYRITYGETGGNSPVQEFTVPLQPPTATISGLKPGVDYTITGYAVTVEENGRQLMTPISINYRT | 35% | 0% |
| EGE10 (designed binder, 10Fn3 clone, Del 1-8) EVVAATPTSLLISWRHPHFPTRYYRITYGETGGNSPVQEFTVPLQPPTATISGLKPGVDYTITGYAVTMGPNDRELLTPISINYRT | 37% | 1% |
| EGE2 (designed binder, 10Fn3 clone, Del 1-8) EVVAATPTSLLISWRHPHFPTRYYRITYGETGGNSPVQEFTVPLQPPTATISGLKPGVDYTITGYAVTVERNGRQLMTPISINYRT | 42% | 33% |
| EGE4 (designed binder, 10Fn3 clone, Del 1-8) EVVAATPTSLLISWRHPHFPTRYYRITYGETGGNSPVQEFTVPLQPPTATISGLKPGVDYTITGYAVTVERNGRVLNTPISINYRT | 26% | 41% |
| E17 (designed binder, 10Fn3 clone, Del 1-8) EVVAATPTSLLISWRHPHFPTRYYRITYGETGGNSPVQEFTVPLQPPTATISGLKPGVDYTITGYAVTVEENGRVLNTPISINYRT | 32% | 10% |
| EGE6 (designed binder, 10Fn3 clone, Del 1-8) EVVAATPTSLLISWRHPHFPTRYYRITYGETGGNSPVQEFTVPLQPPTATISGLKPGVDYTITGYAVTLERNGRLLNTPISINYRT | 33% | 40% |
| EGE3 (designed binder, 10Fn3 clone, Del 1-8) EVVAATPTSLLISWRHPHFPTRYYRITYGETGGNSPVQEFTVPLQPPTATISGLKPGVDYTITGYAVTVERNGRQLYTPISINYRT | 34% | 38% |
| EGE11 (SEQ ID NO 87) (designed binder) EVVAATPTSLLISWRHPHFPTRYYRITYGETGGNSPVQEFTVPLQPPTATISGLKPGVDYTITGYAVTMGKNDRELLTPISINYRT | 32% | 1% |
| EGE11 (SEQ ID NO 72) (designed binder) EVVAATPTSLLISWRHPHFPTRYYRITYGETGGNSPVQEFTVPLQPPTATISGLKPGVDYTITGYAVTFGWNDRELLIPISINYRT | 50% | 0% |
| EGE5 (designed binder, 10Fn3 clone, Del 1-8) EVVAATPTSLLISWRHPHFPTRYYRITYGETGGNSPVQEFTVPLQPPTATISGLKPGVDYTITGYAVTLERNGRVLNTPISINYRT | 32% | 47% |
| E22 (designed binder, 10Fn3 clone, Del 1-8) EVVAATPTSLLISWRHPHFPTRYYRITYGETGGNSPVQEFTVPLQPPTATISGLKPGVDYTITGYAVTLGRNDRELLTPISINYRT | 45% | 3% |
| EGE9 (designed binder, 10Fn3 clone, Del 1-8) EVVAATPTSLLISWRHPHFPTRYYRITYGETGGNSPVQEFTVPLQPPTATISGLKPGVDYTITGYAVTFGPNDRELLTPISINYRT | 32% | 1% |
| E24 (designed binder, 10Fn3 clone, Del 1-8) EVVAATPTSLLISWRHPHFPTRYYRITYGETGGNSPVQEFTVPLQPPTATISGLKPGVDYTITGYAVTVERNDRVLFTPISINYRT | 24% | 29% |
| E15 (designed binder, 10Fn3 clone, Del 1-8) EVVAATPTSLLISWRHPHFPTRYYRITYGETGGNSPVQEFTVPLQPPTATISGLKPGVDYTITGYAVTLEPNGRYLMVPISINYRT | 52% | 2% |
